# T1: Arabidopsis NPR1 protein (Arabidopsis, UniProt P93002 1-593, limits assumed)
# T1 construct: In the plant experiments it is the endogenous NPR1; also called NIM1; SAI1
# T1 sequence (looked up): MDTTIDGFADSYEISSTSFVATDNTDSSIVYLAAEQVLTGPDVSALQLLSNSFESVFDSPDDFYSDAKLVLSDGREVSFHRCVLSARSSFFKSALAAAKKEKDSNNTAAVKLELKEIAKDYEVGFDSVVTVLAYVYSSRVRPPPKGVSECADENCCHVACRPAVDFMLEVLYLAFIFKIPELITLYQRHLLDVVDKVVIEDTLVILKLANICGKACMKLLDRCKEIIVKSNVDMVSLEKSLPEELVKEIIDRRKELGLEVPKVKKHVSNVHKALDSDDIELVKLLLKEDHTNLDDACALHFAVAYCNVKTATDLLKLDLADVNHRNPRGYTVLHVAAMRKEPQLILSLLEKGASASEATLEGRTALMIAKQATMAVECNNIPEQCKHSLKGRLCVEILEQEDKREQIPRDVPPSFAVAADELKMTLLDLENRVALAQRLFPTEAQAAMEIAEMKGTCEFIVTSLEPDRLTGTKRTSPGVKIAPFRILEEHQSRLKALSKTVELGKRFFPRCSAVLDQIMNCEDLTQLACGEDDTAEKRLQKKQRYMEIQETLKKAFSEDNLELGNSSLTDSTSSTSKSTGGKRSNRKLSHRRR
# What was measured:
# [1] = target: Arabidopsis NPR1 protein (Arabidopsis) (UniProt P93002); experiment: cell-based or functional assay
# Arabidopsis NPR1 protein = target: T1, Arabidopsis NPR1 protein; experiment: interaction assay (yeast), summary of the examples
# Sequence of NIAD fusion protein (N-terminal first 52 amino acids of NRR fused to a VP16 activation domain) (P06492 whole entry, the tested form may be a part): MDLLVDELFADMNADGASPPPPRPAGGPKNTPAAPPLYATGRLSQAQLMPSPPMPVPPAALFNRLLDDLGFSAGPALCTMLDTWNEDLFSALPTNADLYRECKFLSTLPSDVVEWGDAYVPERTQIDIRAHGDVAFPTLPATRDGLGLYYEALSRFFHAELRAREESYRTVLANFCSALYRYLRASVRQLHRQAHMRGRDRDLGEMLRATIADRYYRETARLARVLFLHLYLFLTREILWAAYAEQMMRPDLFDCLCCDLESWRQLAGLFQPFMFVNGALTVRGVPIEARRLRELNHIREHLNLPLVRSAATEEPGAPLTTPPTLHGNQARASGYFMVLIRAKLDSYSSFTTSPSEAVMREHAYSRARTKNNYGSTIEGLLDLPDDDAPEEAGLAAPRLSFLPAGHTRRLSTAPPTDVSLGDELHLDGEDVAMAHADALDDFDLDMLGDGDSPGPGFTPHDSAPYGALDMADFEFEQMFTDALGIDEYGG
binding result (Arabidopsis NPR1 protein),Molecule,"GUS activity from the BG2-Gus reporter after 0.1 mM INA induction (transgenic Arabidopsis line NIAD-22, repeat assay) [1]","Pst DC3000 bacterial populations at day 4, wild type relative to the NIAD lines [1]"
–,NIAD fusion protein (N-terminal first 52 amino acids of NRR fused to a VP16 activation domain) (from UniProt P06492 413-490),2 fold over WT,4 to 5 fold
binds,"rice NRR (Negative Regulator of disease Resistance) protein, wild type (other, also called wild type NRR) MDATTTDATTAKRKRPAASDIADDAPTTVDEVSDAEVEEFYAILRRMRDATRRLGARPPPPRAPAWRPSFSWEDFADAPPKQAPPPPQQPADHERVAENATPPRRPAPGLDLNVEPPSDAPATPRSARAPA",–,–
binds,"NRR single point mutant E39K (other, also called EK) MDATTTDATTAKRKRPAASDIADDAPTTVDEVSDAEVEKFYAILRRMRDATRRLGARPPPPRAPAWRPSFSWEDFADAPPKQAPPPPQQPADHERVAENATPPRRPAPGLDLNVEPPSDAPATPRSARAPA",–,–

# From US20100037349A1 (University of California, published 2010)
